Laboratory results reported in patent US7700571 (Genentech, dated 2010).

How the values were obtained:
[1] = target: Flt-1 on primary mouse liver sinusoidal endothelial cells (LSEC) (mouse) (UniProt P35969); assay: cell-based or functional assay
Flt-1 = target: T1, Flt-1 (UniProt P17948 27-758, limits assumed); assay: soluble radio-immuno receptor-binding assay (RIA); target Flt-1
T1 construct: also called VEGFR-1; Flt-1 receptor

KDR [2] = target: T2, KDR (UniProt P35968 20-764, limits assumed); assay: soluble radio-immuno receptor-binding assay (RIA); target KDR
T2 construct: also called VEGFR-2; KDR receptor

[3] = target: T3, Flt-1 on primary mouse liver sinusoidal endothelial cells (LSEC) (mouse, UniProt P35969 23-1333); assay: cell-based or functional assay
T3 sequence (looked up): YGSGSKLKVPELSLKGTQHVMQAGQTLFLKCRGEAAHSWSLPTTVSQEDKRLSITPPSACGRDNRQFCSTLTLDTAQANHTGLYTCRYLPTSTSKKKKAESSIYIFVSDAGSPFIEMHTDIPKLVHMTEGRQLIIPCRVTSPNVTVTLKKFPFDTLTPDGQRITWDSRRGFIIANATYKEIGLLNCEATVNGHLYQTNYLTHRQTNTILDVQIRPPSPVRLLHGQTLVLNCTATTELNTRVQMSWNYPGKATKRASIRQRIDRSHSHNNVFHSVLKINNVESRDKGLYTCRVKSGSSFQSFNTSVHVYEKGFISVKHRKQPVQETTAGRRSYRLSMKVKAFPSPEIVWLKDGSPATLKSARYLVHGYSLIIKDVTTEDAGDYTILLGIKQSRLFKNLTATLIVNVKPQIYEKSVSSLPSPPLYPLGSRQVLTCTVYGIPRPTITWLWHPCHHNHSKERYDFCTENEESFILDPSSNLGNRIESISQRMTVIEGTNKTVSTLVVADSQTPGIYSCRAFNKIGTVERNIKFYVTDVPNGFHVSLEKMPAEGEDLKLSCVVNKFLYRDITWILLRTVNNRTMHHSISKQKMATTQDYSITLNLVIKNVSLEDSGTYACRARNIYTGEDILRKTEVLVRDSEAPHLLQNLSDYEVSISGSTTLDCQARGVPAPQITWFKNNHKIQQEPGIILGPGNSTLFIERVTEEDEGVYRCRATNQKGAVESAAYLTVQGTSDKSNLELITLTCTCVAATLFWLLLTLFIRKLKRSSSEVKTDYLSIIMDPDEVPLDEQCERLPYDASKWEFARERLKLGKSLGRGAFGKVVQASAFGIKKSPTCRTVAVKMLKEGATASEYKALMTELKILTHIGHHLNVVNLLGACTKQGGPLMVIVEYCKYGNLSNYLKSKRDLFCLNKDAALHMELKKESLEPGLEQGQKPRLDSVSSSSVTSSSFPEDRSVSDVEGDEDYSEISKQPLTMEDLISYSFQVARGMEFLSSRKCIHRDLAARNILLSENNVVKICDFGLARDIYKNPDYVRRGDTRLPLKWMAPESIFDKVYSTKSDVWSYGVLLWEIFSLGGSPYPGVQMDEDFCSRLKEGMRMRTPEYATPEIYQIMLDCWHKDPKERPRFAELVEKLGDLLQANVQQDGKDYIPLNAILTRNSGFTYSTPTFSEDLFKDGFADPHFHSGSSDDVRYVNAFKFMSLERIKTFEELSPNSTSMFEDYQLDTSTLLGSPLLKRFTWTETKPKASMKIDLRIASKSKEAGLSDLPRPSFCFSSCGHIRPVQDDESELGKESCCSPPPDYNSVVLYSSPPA

KDR [4] = target: T2, KDR; assay: soluble radio-immuno receptor-binding assay (RIA)

T2 sequence (P35968 20-764 limits assumed): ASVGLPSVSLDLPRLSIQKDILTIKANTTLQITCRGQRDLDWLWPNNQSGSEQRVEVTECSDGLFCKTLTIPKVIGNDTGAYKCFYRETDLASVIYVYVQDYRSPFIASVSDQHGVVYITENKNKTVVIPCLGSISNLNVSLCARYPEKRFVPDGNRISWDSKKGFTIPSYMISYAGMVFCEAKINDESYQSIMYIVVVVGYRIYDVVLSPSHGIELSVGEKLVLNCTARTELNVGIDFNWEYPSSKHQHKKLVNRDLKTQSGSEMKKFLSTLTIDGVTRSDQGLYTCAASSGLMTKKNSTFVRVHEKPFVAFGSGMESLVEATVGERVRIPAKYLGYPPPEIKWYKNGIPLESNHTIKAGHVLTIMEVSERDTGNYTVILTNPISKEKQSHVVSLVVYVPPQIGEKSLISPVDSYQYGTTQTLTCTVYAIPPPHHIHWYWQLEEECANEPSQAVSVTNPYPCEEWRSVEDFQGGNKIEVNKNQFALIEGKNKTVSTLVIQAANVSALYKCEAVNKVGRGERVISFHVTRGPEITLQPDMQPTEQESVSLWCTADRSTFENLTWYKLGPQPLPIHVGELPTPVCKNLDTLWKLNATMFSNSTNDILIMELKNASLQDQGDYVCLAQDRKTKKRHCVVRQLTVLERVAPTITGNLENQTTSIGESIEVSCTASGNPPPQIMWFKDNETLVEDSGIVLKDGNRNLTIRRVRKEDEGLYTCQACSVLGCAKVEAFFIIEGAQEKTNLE
T1 sequence (P17948 27-758 limits assumed): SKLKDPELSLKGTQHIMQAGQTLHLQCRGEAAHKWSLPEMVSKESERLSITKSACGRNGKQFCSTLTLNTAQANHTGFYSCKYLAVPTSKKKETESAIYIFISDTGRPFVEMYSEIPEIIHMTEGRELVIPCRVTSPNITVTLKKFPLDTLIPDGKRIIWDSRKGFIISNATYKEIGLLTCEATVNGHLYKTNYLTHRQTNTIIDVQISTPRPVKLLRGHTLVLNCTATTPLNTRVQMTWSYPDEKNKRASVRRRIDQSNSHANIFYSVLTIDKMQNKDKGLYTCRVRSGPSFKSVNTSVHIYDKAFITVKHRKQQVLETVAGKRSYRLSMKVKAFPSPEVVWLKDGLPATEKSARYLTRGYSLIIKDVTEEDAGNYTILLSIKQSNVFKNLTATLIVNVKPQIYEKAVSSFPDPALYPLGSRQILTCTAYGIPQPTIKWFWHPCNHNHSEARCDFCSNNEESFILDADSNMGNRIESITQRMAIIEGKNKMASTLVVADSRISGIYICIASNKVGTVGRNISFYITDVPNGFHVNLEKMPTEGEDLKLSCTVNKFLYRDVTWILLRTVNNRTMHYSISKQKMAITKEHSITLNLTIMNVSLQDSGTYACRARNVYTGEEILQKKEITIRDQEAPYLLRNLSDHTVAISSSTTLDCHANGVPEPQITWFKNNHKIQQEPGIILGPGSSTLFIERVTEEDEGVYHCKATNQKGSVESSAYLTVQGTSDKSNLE

recombinant human VEGF (from UniProt P15692 181-395) (ligand)
induction of HGF mRNA in LSEC (Taqman RT-PCR, 10 ng/ml, 24 h) [1]: 5.5 fold | induction of IL-6 mRNA in LSEC (Taqman RT-PCR, 10 ng/ml, 24 h) [1]: 3.3 fold

B1: native VEGF(8-109) (ligand)
chain: GQNHHEVVKFMDVYQRSYCHPIETLVDIFQEYPDEIEYIFKPSCVPLMRCGGCCNDEGLECVPTEESNITMQIMRIKPHQGQHIGEMSFLQHNKCECRPKKD
notes: If that entry includes the signal peptide, 8-109 must be shifted; also called the native protein
Kd (Flt-1): 400 pM | Kd (KDR [2]): 500 pM

B2: Flt-sel variant I43A/I46A/Q79A/I83A (ligand)
chain: APMAEGGGQNHHEVVKFMDVYQRSYCHPIETLVDIFQEYPDEAEYAFKPSCVPLMRCGGCCNDEGLECVPTEESNITMAIMRAKPHQGQHIGEMSFLQHNKCECRPKKDRARQENPCGPCSERRKHLFVQDPQTCKCSCKNTDSRCKARQLELNERTCRCDKPRR
notes: VEGF variant with four alanine substitutions, numbered on native VEGF; also called Fit-sel; FIt-sel
induction of HGF mRNA in LSEC (Taqman RT-PCR, 10 ng/ml, 24 h) [3]: 5.5 fold | induction of IL-6 mRNA in LSEC (Taqman RT-PCR, 10 ng/ml, 24 h) [3]: 3.3 fold | fold reduction of KDR-binding affinity against native VEGF(8-109) (KDR [4]): ≥ 470 fold
